Biological target: TAP-Mud13p (S. cerevisiae) (UniProt Q08920)
Assay: pull-down

Sequence of UniProt Q08920 (Q08920 whole entry): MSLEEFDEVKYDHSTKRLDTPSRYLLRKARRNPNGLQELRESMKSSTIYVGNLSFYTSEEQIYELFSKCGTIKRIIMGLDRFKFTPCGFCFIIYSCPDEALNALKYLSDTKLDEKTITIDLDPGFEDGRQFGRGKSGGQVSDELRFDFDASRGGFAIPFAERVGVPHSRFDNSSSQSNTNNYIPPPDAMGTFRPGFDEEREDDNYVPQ

B1: Tif4631p Δ491-501 (natural protein)
chain: MTDETAHPTQSASKQESAALKQTGDDQQESQQQRGYTNYNNGSNYTQKKPYNSNRPHQQRGGKFGPNRYNNRGNYNGGGSFRGGHMGANSSNVPWTGYYNNYPVYYQPQQMAAAGSAPANPIPVEEKSPVPTKIEITTKSGEHLDLKEQHKAKLQSQERSTVSPQPESKLKETSDSTSTSTPTPTPSTNDSKASSEENISEAEKTRRNFIEQVKLRKAALEKKRKEQLEGSSGNNNIPMKTTPENVEEKGSDKPEVTEKTKPAEEKSAEPEVKQETPAEEGEQGEKGQIKEESTPKVLTFAERLKLKKQQKEREEKTEGKENKEVPVQEETKSAIESAPVPPSEQVKEETEVAETEQSNIDESATTPAIPTKSDEAEAEVEAEAGDAGTKIGLEAEIETTTDETDDGTNTVSHILNVLKDATPIEDVFSFNYPEGIEGPDIKYKKEHVKYTYGPTFLLQFKDKLNVKADAEWVQSTASKIVIPPGMGRGNSSRGHDFRNTSVRNMDDRANSRTSSKRRSKRMNDDRRSNRSYTSRRDRERGSYRNEEKREDDKPKEEVAPLVPSANRWVPKFKSKKTEKKLAPDGKTELLDKDEVERKMKSLLNKLTLEMFDAISSEILAIANISVWETNGETLKAVIEQIFLKACDEPHWSSMYAQLCGKVVKELNPDITDETNEGKTGPKLVLHYLVARCHAEFDKGWTDKLPTNEDGTPLEPEMMSEEYYAAASAKRRGLGLVRFIGFLYRLNLLTGKMMFECFRRLMKDLTDSPSEETLESVVELLNTVGEQFETDSFRTGQATLEGSQLLDSLFGILDNIIQTAKISSRIKFKLIDIKELRHDKNWNSDKKDNGPKTIQQIHEEEERQRQLKNNSRSNSRRTNNSSNRHSFRRDAPPASKDSFITTRTYSQRNSQRAPPPKEEPAAPTSTATNMFSALMGESDDEE
modifications: 35S-labelled
Question: Which percent reduction of the interaction efficiency against wild-type Tif4631p does the source give for B1 here?
Answer: > 30%

Source: publication PMC4157582
